± gives the half width of the 95% confidence interval.
Legend:
[1] = folding stability dG unfold from trypsin proteolysis; higher = more stable
Protocol: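 Folding stability of de novo designed mini-proteins (<80 aa, no Cys; designed by TrROS, TrMRF, ProteinMPNN and the joint model) was measured by cDNA display proteolysis with trypsin and chymotrypsin. Each protease was used at 11 concentrations in a threefold dilution series plus a no-protease condition. K50 was inferred by Bayesian fitting of sequencing counts, and dG unfold was derived against a sequence-predicted unfolded-state K50 (Tsuboyama et al. method). Sequences shown include variable-length N-terminal GS-type padding (SAGGSAGG...) inside a display construct carrying a PA tag. Rows were kept only if the AF2 dimer inter-PAE was >15, to exclude likely homo-oligomers.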

[2] = folding stability dG unfold (combined trypsin and chymotrypsin); higher = more stable
In short: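 Digests were run with trypsin and chymotrypsin at 11 concentrations in threefold dilutions, plus a no-protease condition, on designed mini-proteins in a PA-tagged cDNA display construct. The mini-proteins were under 80 residues, had no cysteine, and were kept only when AlphaFold2 dimer inter-PAE was above 15. After sequencing, Bayesian fitting of the counts gave K50, from which unfolding free energy was derived against a sequence-predicted unfolded-state K50 and a shared folded-state K50, per protease or combined.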

Sequence	folding stability dG unfold [1] [kcal/mol]	folding stability dG unfold [2] [kcal/mol]
SAGGSASPEELAERVAKEIEEKYPVEVTEIRVEEVSEDEVVLSMTYRKPLPGGETEVENRTVTLPQSAGGSA [r15_276_JUSTAS]	0.162 ± 0.26	-0.404 ± 0.46
SAGGSAGGSAGNVEEIADQLKPNGYKISTVEPTDDQVEVEIYNPESKEPRKFRIPPNQPISAGGSAGGSAGG [r11_428_TrROS]	-0.414 ± 0.24	< -1
SAGGMVVTSESREPDGTWTVRTVYRDPAGNLTITSSSTSSATVTRKDSAGTPSTAASTTNTYTSAALSAGGS [r8_270_JUSTAS]	0.216 ± 0.067	-0.281 ± 0.15
SAGGSMEIPLGETIPIFFDDVIIEIEPETHEIHVIAEDSEKALELIKNLPFPIPAGEVKELSPEEFSAGGSA [r2_418_TrMRF]	0.352 ± 0.042	-0.364 ± 0.21
SAGGSAGGSAGGMITKVTVTYLPGGEVSLTITDENGTPSEKTLSLAELKKYPDIPLELDPSAGGSAGGSAGG [r7_238_JUSTAS]	0.174 ± 0.05	-0.374 ± 0.088
SAGGSAGGLVIRNPDTNELIELKPGEELTITVTVEAPPAEEETTTETETRTLTLTVRLPEEAEESAGGSAGG [r6_273_TrROS_Hall]	0.156 ± 0.16	-0.0133 ± 0.21
LKITLPGGAEVTEIDDIKVSSDGYIELNVRVRNPDNDVEVPVPVYIPVPPVPPVPVKVSFIPGTGKLVVDDS [r1_411_TrMRF]	0.0956 ± 0.11	< -1
SAGGSAGGSAGGLKIQRFPDGNWYRIYLPNGNEHHIPMDEPIKVPNAKEPVKIEPVPPDDSAGGSAGGSAGG [r7_968_TrROS]	-0.936 ± 0.28	-0.961 ± 0.41
SAGGSAGGSAGTVTVDPEKGVVYVPLPEPISPEEVIEKRKEPELDVKILSVGENVAVILVSAGGSAGGSAGG [r17_323_JUSTAS]	0.493 ± 0.027	-0.218 ± 0.11
SAGGNPDWIPIQVPFEDPGDQDAMKKLVEELADIFLDEGIKPIEVEHTNPGHYSVWIPFDGKSIRIHSAGGS [r16_703_TrROS]	-0.37 ± 0.13	-0.888 ± 0.38
SAGGSAGGSAGGPMSNVVEEVVSVEVTNPGLPDSRFVTNPEPGVPLPVPRTVPVVIVLRASAGGSAGGSAGG [r11_257_JUSTAS]	-0.602 ± 0.33	< -1
SAGGSPYRIKFEFPNGPKFEFPVKITEIQPPNGNLYANITAQDDGKPHELMFPAPNIRPVEIEPPPSAGGSA [r2_319_TrROS]	-0.796 ± 0.69	-0.414 ± 0.66
SAGGSAGGSAGGKEIPLDEVKDIQPSNDKWYVVFPGKPQRFPPDDIPIPPGKPIRIYPLSAGGSAGGSAGGS [r10_665_TrROS]	0.338 ± 0.058	-0.154 ± 0.24
SAGGSAGGSAVEEEVERIEKAVGVPIDPGSSVTKVKEGVEPVLPYRMDIKPGVESPELLLLSAGGSAGGSAG [r3_427_JUSTAS]	-0.908 ± 0.53	< -1
SAGGTTTESVSEDSTDNGEYVTTTTTTDPVGPSTVVTTTTTTTPADGTTTTTTTTYTVPPGAPASAVVSAGG [r13_3_JUSTAS]	0.354 ± 0.052	-0.00338 ± 0.16
SAGGSAGGTIIDRIKELFGPGMKINIQEHPSEPYYRIRIKNPGFGQKREIHVPPDSIEDILDQISAGGSAGG [r6_612_TrROS]	0.538 ± 0.33	0.202 ± 0.36
SAGGSAGGSAGGSMAIPVYLKIENKVLTSLDELKEAVESGKPIEIERIEAFDLSPDEEVSAGGSAGGSAGGS [r4_479_TrMRF]	-0.74 ± 0.35	< -1
SVVNFPVSLAATRDGNPVPIEEVLERVAKEIGGPDVKPEIKPGPGDTLVATVKLPDGTTATASDSSSVTDAS [r1_168_JUSTAS]	-0.293 ± 0.11	< -1
SAGGGSSMVTTVIPVLRTETLFDENGNVIGPRTTVETIELEAEVPLPPRPPLVFSFVPPELRDPAVLLSAGG [r13_508_JUSTAS]	-0.299 ± 0.24	< -1
SAGGSAFKELLKEIKEQLQQAPPGEQVEVPIPFPDGYPLRIEINPDENKIEVEYPNGEEEEFDIPPSAGGSA [r15_977_TrROS]	0.133 ± 0.19	< -1
SAGGSAGGSAGGIWIPGDDIKEALKKMPPDVTKHIFNPDEGRWIMIKVNDNKIDIEPWPSAGGSAGGSAGGS [r10_137_TrROS]	-0.392 ± 0.16	-0.748 ± 0.36
SAGGRPTMTAEEAAIRLIKELGIPGVKDIKEVVAVVRGGDPDNKPEKGSAILIKAEVPAEEVERLKKESAGG [r13_552_TrMRF]	0.221 ± 0.045	-0.299 ± 0.11
SAGMEVTVTDPIPLDPTPDGVPDVKPELVEERAKAAGFTDEIESVDTTPKPDSVTTTVTHPTATLTAGSAGG [r19_398_JUSTAS]	-0.201 ± 0.082	< -1
SLEIAKELGFPIKRFEPTEMDPDNGRQKWEAYIPMPNRTVRVDIDIRYEPDPNGKRQPKIQIDSIEFMPPSA [r9_613_TrROS]	0.392 ± 0.12	-0.242 ± 0.23

Sequence	folding stability dG unfold [1] [kcal/mol]	folding stability dG unfold [2] [kcal/mol]
SAGGSAGGGLSASDTVTFPDGTVVTVAPDATVTITVPAPPDAAGNLTSTVTRTVTVAPGTRVLLSAGGSAGG [r6_90_JUSTAS]	-0.907 ± 0.41	< -1
SAGMKVEVVERKGPDGRLVRVVKETTITPVPGPAVAEANGAPLTPEDEKVVTVTTTVLDPEGKVLETVDSAG [r5_128_JUSTAS]	-0.903 ± 0.43	< -1
SAGGSAGGSAGGRITINPENGMVQIKGPNGNQHTFPMDDASELQKEFGLPNIDIEVFPPNSAGGSAGGSAGG [r7_235_TrROS]	0.292 ± 0.15	-0.145 ± 0.22
SAGGSAGGSAKITIPASQITHVDLETGELLVDHPSGRPIIFRVDPDRPDLILVEDPSGLSLGSAGGSAGGSA [r18_418_TrMRF]	-0.703 ± 0.15	< -1
SAGGSAGGNVKIEVEPGPNGNYLIKIRMPNGTKVEHQFDSPEDAEERAKDFAEEFPPNAQVEIWSAGGSAGG [r6_464_TrROS]	-0.00876 ± 0.14	< -1
MKKTIPFPPSHPDLSPEEVAERLRERFLSPEESITVTTDPATGTTTVTATRGNVTTVATLSPAGTVTVTGAS [r1_131_JUSTAS]	-0.0831 ± 0.14	< -1
SAGGSAMDAEQIEEKIKEAMQDHGHEVEVEVQRDPNNTVVIQVESGPGMDKDRIQEALQEKFGVKISAGGSA [r15_807_TrROS]	-0.793 ± 0.1	< -1
SAGGFRITPEFLEELLKNMPPGDPNKTITVKVEMPMRYEPRKGGNGQPQYRHEYPMTHEFPITIPPKSAGGS [r16_708_TrROS]	0.32 ± 0.066	-0.349 ± 0.19
SAGMKKEKPKETVTITLKNGKKIEIVKTDDSIKIFITDKNGKKRELTVKGLSLEEILKKLEELGFEVEPSAG [r5_613_TrROS_Hall]	0.776 ± 0.082	0.353 ± 0.2
SAGGSAPPASAPGVVEEVEAEVPVDVPEVARLTGRPPRPGERYRVRVVRRVYPDGRVETDVYIEPGSAGGSA [r15_91_TrMRF]	0.328 ± 0.064	-0.252 ± 0.14
SAGGSAGGSAGGSERHTAVLVDTGFRISPAPEEGGLRLEAGASLTIREVPEDALKEVLGSAGGSAGGSAGGS [r4_274_TrMRF]	-0.398 ± 0.26	< -1
SAGGSAGGSAGGPSDVTLLEEEVEELPNGTIKTRYTFKLPNGELAEAESTTPLEGPFHHSAGGSAGGSAGGS [r10_532_JUSTAS]	-0.0802 ± 0.2	-0.463 ± 0.26
SAGGSAGGSAGGPKIDHVMLHRNPGNGRYNVTIKLRDPNGKPKDTIMVPMNDPEKILDALSAGGSAGGSAGG [r7_484_TrROS]	-0.0862 ± 0.06	-0.652 ± 0.22
SAGGSNNDNQPEPKVPYMEITINIPVNYNPNQSEEDRKRQVQEFIEELKDMYIPFPNGYPIRIDVMSAGGSA [r2_149_TrROS]	0.149 ± 0.13	-0.554 ± 0.49
SAGGFRINIPPNMPKEKLEEIQDEAEEESGMPVTINTNPDDGSLHIEFPGGPEWKQRRIQDEIRELLSAGGS [r16_227_TrROS]	-0.507 ± 0.44	< -1
SAGGSAGGSAGGSMVLYERVPASELPPGKGETLLIREVTVEKLPGNRIILNEGVKVIPPSAGGSAGGSAGGS [r4_444_JUSTAS]	-0.186 ± 0.15	-0.831 ± 0.24
SAGMYIEGSLSSPEEAPVVAVPFPGPEKLLLAPLAVGLEEIREALEEEGFEPVEIRVAETEPGVPLDLSAGG [r19_386_TrMRF]	0.211 ± 0.024	-0.694 ± 0.24
SVVTLEQVAELVEKGVELVAVLPDNRLLFYDPEREEPIELEVEEVPPPKPIFIEGGVESLEEALKFLEAESA [r9_649_TrMRF]	0.456 ± 0.027	-0.381 ± 0.37
SAGGSTLDELIDAIKKAAKKGKEPVEIEFPNPNGGMIKINPDGSIETFPPNGEPQRFKIPLDDLKISAGGSA [r2_97_TrROS]	-0.568 ± 0.11	-0.781 ± 0.25
SAGGSAGGSNIVSARPLGDLVLIEIEPGGKPLRAVVRPSELPPNPPIPPGLSYRVEPGSVSDYSAGGSAGGS [r12_1005_TrMRF]	-1.09 ± 0.28	< -1
SAGGSAGGSKFPKKFTVEVYTLTKKLKTPEGKLKTETTVLIEKTEEIKPLPEIDEERVEKVLLSAGGSAGGS [r12_1060_JUSTAS]	0.166 ± 0.71	< -1
SAGGSAGGMPSDTPFTITKITSVTLNDGRGTTKAVVSYPDGSLVTISSSELERLTKENPNLNLVSAGGSAGG [r6_78_JUSTAS]	0.384 ± 0.062	-0.0536 ± 0.13
SAGGGMTLTQVSSHQSPNGGVPTTLVTETLFYPETGTAVVLTKVRLPETGEVTTVASTVLPIPPPLLSAGGS [r8_384_JUSTAS]	-0.0612 ± 0.066	-0.726 ± 0.31

Reference: the supplement of paper PMC12764529
